From patent US20100048604A1, “Ligands for Aldoketoreductases” (priority 2004, published 2010) come the findings set out here.

Data set [1] relates to AKR1C1-AKR1C4. Kind of data set: Substrate tolerance and selectivity across the four human AKR1C isozymes. Type of data set: biochemical. As to conditions: AKR1C1-AKR1C4, purified enzymes, NADPH. The text has this: (§1) AKR1C2 and AKR1C3 Selective Probes: Probes (5a-5i) were examined as substrates for the four purified human HSD isozymes (AKR1C1-AKR1C4) under standard assay conditions [catalytic quantities of enzyme, an excess of cofactor (NADPH)]. The initial reaction rates were used to derive standard kinetic parameters (kcat and Km, Materials and Methods).
(§2) Substrate tolerance of AKR1Cs: Isozyme Activity with 5a-5i: Activity of the second generation of fluorogenic substrates with the AKR1C isozymes was determined as follows. To a STARNA semi-micro fluorimeter cell (with 4 polished windows) was added 100 μL of 1 M potassium phosphate buffer (pH 6), 840 μL doubly deionized water, and 20 μL of 12.5 mM NADPH. After mixing the aqueous components thoroughly, 20 μL of acetonitrile was added as a cosolvent and mixed well. 20 μL of 2.5 mM second generation fluorogenic ketone in acetonitrile (5a-5i) was then added and mixed. 4 μL of undiluted AKR1C (provided generously by the Penning lab at concentrations of 2.5 mg/mL) were then added to the cuvette for a total of 10 μg purified enzyme in the 1 mL assay volume. Fluorescence arising from the respective alcohol reduction product was then monitored over the course of 5-10 minutes.
Binding constant and catalytic rates (Km and kcat) of the second generation of fluorogenic substrates was determined as follows. To a STARNA semi-micro fluorometer cell (with 4 polished windows) was added 100 μL of 1 M potassium phosphate buffer (pH 6), 840 μL doubly deionized water, and 20 AL of 12.5 mM NADPH. After mixing the aqueous components thoroughly, 20 μL of acetonitrile was added as a cosolvent and mixed well. […] Fluorescence arising from the respective alcohol reduction product was then monitored over the course of 3 minutes (Excitation and emission band pass slits both at 4 nm, lamp 700 V, λexc 410 nm, λem 510). The rate of product formation, expressed in units of nanomoles per minute, were calculated according to previously published procedures (Wierzchowski, J.; Dafeldecker, W. P.; Holmquist, B.; Vallee, B. L. Anal. Biochem. 1989, 178, 57-62): […]

For data set [2], the target named is T1, horse liver alcohol dehydrogenase (HLAD) (Equus caballus, UniProt P00327).
T1 construct: purchased Sigma (St. Louis, Mo.) Lot Number 51K7520 (catalogue number not given)
T1 sequence (P00327 2-375 limits assumed): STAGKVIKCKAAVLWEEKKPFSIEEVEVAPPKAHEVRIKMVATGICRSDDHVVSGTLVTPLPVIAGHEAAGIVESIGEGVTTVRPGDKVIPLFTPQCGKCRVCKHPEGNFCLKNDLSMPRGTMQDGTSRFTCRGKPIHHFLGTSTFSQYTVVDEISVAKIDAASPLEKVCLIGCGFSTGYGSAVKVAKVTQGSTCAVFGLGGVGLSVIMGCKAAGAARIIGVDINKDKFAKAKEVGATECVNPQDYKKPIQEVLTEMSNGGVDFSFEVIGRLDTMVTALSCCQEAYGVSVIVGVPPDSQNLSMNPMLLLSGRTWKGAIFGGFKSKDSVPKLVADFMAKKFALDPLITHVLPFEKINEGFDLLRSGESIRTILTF
Kind of data set: Enzymatic screening of probes 1-7 against a panel of oxidoreductases. The data set is classed as biochemical. As to conditions: 12 hour incubation, 30-50 μM substrate, pH 7, 250 μM NAD(P)H. On the procedure: (§3) FIG. 4. Screening of probes 1-7 against a panel of oxidoreductases Percentage fluorescence increase after 12 hour incubation of 30-50 μM substrate, 100 mM phosphate buffer (pH 7), 250 μM NAD(P)H, and 100 nM enzyme. Substrates 1, 2, 3, and 4 monitored at λexc=340 nm, λem=440 nm. Substrates 5, 6, and 7 monitored at λexc=440 nm, λem=510 nm. 3HSD, 3α-hydroxysteroid dehydrogenase (PT, Pseudomonas testosteroni), HLAD, horse liver alcohol dehydrogenase, TBAD, Thermoanaerobium brockii alcohol dehydrogenase, BS 12HSD, Bacillus sp. 12α-hydroxysteroid dehydrogenase, ABAD, amyloid-β binding alcohol dehydrogenase (human), GDH, glycerol dehydrogenase, YADH, yeast alcohol dehydrogenase, LDH, lactate dehydrogenase.
(§4) Probes 1-7 (see FIG. 3) were subsequently tested against a collection of dehydrogenases in the presence of NAD(P)H; the extent of reduction was assessed by the measurement of fluorescence intensity at the emission maximum of each probe (FIG. 4). This assay included enzymes from two major oxidoreductase superfamilies, the short chain alcohol dehydrogenases (SDR) and the aldo-keto reductases (AKR), ranging from bacterial to mammalian and human enzymes.
(§5) Horse Liver alcohol dehydrogenase (Lot Number 51K7520), Thermoanaerobium brockii NADP^+ dependent alcohol dehydrogenase (Lot Number 033K4093), Pseudomonas testosteroni 3α-hydroxysteroid dehydrogenase (Lot Number 053K8624), and Bacillus sphaericus 12α-hydroxysteroid dehydrogenase (Lot Number 70K16621) were purchased from Sigma (St. Louis, Mo.). Yeast alcohol dehydrogenase (Lot Number 93122920), glycerol dehydrogenase (Lot Number 92110122), (D)-lactate dehydrogenase (Lot Number 92419236), (L)-lactate dehydrogenase (Lot Number 92801821), NAD^+, NADP^+, NADH, and NADPH were purchased from Roche. Enzyme activity was confirmed by compliance to supplier's quality control assays prior to usage. Rat and human 3α-hydroxysteroid dehydrogenases were provided by Professor Trevor Penning (University of Pennsylvania School of Medicine) and human amyloid-β peptide binding alcohol dehydrogenase was supplied by Professor Shi Du Yan (Columbia University School for Physicians and Surgeons).
(§6) Enzymatic assays were performed in triplicate on selected fluorogenic substrates according to the following protocol. To each well of a FALCON 96-well black flat bottom plate was added (1) 40 μL of 500 mM potassium phosphate buffer pH 7.0, (2) 113 μL of double deionized water, (3) 25 μL of 2 mM NADH (except for Pseudomonas testosteroni 3α-hydroxysteroid dehydrogenase, rat 3α-hydroxysteroid dehydrogenase, and Thermoanaerobium brockii NADP^+ dependent alcohol dehydrogenase, in which cases 2 mM of NADPH was used), (4) 2 μL of a 3-5 mM solution of substrate in DMSO, and (5) 20 μL of a 40-50 μg/mL solution of enzyme. Reaction volumes were mixed thoroughly after addition of cofactor, substrate, and enzyme and allowed to react 12 hours at 25° C. Scanning of the 96-well plate was performed by the MicroMax 384 connected to a Jobin Yvon Fluorolog through F-3000 fiber optic cables.
(§7) Initial Screening with Fluorogenic Substrates: Screening of the first fluorogenic substrates for enzymatic activity has been described above. In short, 200 μL enzymatic assay volumes containing 100 mM potassium phosphate buffer (pH 7), 250 μM NAD(P)H cofactor, and 30-50 μM of ketones (1-7) were incubated for 12 hours on a black FALCON 96-well plate. Formation of the alcohol reduction product was determined by reading the fluorescence arising from excitation at the corresponding alcohol at either 340 nm (27-30) or 440 nm (31-33).

Data set [3] has as its target T2, Thermoanaerobium brockii alcohol dehydrogenase (TBAD) (Thermoanaerobacter brockii, UniProt P14941).
T2 construct: purchased Sigma (St. Louis, Mo.) Lot Number 033K4093 (catalogue number not given)
T2 sequence (P14941 1-352): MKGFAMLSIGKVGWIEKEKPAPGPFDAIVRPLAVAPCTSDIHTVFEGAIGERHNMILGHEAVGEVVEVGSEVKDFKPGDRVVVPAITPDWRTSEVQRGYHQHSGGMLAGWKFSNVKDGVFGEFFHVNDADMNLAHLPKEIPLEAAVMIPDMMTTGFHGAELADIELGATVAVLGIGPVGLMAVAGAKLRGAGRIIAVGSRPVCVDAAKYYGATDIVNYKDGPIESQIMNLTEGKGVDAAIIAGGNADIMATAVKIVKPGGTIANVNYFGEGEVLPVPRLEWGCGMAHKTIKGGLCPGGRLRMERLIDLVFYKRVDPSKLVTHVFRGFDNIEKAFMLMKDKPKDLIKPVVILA
The description is as above. As to conditions: 12 hour incubation, 30-50 μM substrate, pH 7, 250 μM NAD(P)H. The data set is classed as biochemical. The method, then: as §3, §4, §5, §6, §7

Substrate in data set [4]: CC(=O)c1cc(=O)oc2cc(N(C)C)ccc12
As to the kind of experiment: Steady state kinetic parameters of fluorogenic substrates with purified AKR1C isozymes. The data set is classed as biochemical, human. The settings on record: other: isozyme 1C1, potassium phosphate buffer pH 6, NADPH, fluorimetric.
Source text: as §1, §2
(§8) Binding constant and catalytic rates (Km and kcat) of the second generation of fluorogenic substrates was determined as follows. To a STARNA semi-micro fluorometer cell (with 4 polished windows) was added 100 μL of 1 M potassium phosphate buffer (pH 6), 840 μL doubly deionized water, and 20 AL of 12.5 mM NADPH. After mixing the aqueous components thoroughly, 20 μL of acetonitrile was added as a cosolvent and mixed well. 20 μL of the second generation fluorogenic ketone (5a-5i) was then added and mixed to achieve assay concentrations of 5Km to Km/5. To initiate the reduction, 2 or 4 μL of diluted AKR1C (1:2 to 1:100, depending on the kinetics of a particular isozyme's reduction of a substrate) was then added to the cuvette. Fluorescence arising from the respective alcohol reduction product was then monitored over the course of 3 minutes (Excitation and emission band pass slits both at 4 nm, lamp 700 V, λexc 410 nm, λem 510). The rate of product formation, expressed in units of nanomoles per minute, were calculated according to previously published procedures (Wierzchowski, J.; Dafeldecker, W. P.; Holmquist, B.; Vallee, B. L. Anal. Biochem. 1989, 178, 57-62):
(§9) initial rate=[nst×(Ft−F0)/(Fst)]/t (1)
(§10) where Ft and F0 represent the fluorescence at times t and 0 minutes, nst is the nanomoles of product in a known concentration of product, and Fst is the fluorescence resulting from nst of product. Kinetic parameters were approximated by GraFit (Erithacus Software, Surrey, UK) nonlinear regression analysis program to fit the untransformed data to a hyperbolic function as originally described (Wierzchowski, J.; Dafeldecker, W. P.; Holmquist, B.; Vallee, B. L. Anal. Biochem. 1989, 178, 57-62). Reported enzymatic kinetic parameters are the average of three independent determinations from three different preparations of substrate and enzyme.

Substrate in data set [5]: O=C(c1ccccc1)c1cc(=O)oc2c3c4c(cc12)CCCN4CCC3
The description is as above. The data set is classed as biochemical, human. As to conditions: other: isozyme 1C1, potassium phosphate buffer pH 6, NADPH, fluorimetric.
Source text: as §1, §2, §8, §9, §10

Substrate in data set [6]: O=C1CCc2c1c1cc3c4c(c1oc2=O)CCCN4CCC3
The data set is described as above. The data set is classed as biochemical, human. The settings on record: other: isozyme 1C1, potassium phosphate buffer pH 6, NADPH, fluorimetric.
Source text: as §1, §2, §8, §9, §10

Substrate in data set [7]: CC(=O)c1cc(=O)oc2c3c4c(cc12)CCCN4CCC3
The description is as above. Type of data set: biochemical, human. As to conditions: other: isozyme 1C1, potassium phosphate buffer pH 6, NADPH, fluorimetric.
Source text: as §1, §2, §8, §9, §10

Substrate in data set [8]: CC(=O)c1cc(=O)oc2c3c(ccc12)NCCC3
Described as above. Type of data set: biochemical, human. The settings on record: other: isozyme 1C1, potassium phosphate buffer pH 6, NADPH, fluorimetric.
Source text: as §1, §2, §8, §9, §10

Consider `CC(=O)c1c(Br)c(=O)oc2c3c4c(cc12)CCCN4CCC3` [5e, 8-Acetyl-9-bromo-2,3,5,6-tetrahydro-1H,4H-11-oxa-3a-aza-benzo[de]anthracen-10-one], for which, in data set [1], the “acceptance as substrate by the four human isozymes” value is “not accepted as substrates by any of the tested 3a-HSD enzymes”.

Consider `CC(=O)c1c(-c2ccccc2)c(=O)oc2c3c4c(cc12)CCCN4CCC3` [5f, 8-Acetyl-9-phenyl-2,3,5,6-tetrahydro-1H,4H-11-oxa-3a-aza-benzo[de]anthracen-10-one], for which the “acceptance as substrate by the four human isozymes” value in data set [1] is “not accepted as substrates by any of the tested 3a-HSD enzymes”.

On to `COc1ccc2cc(C#CC(C)=O)c(=O)oc2c1` [compound 4, 7-Methoxy-3-(3-oxo-but-1-ynyl)-coumarin], for which the “reduction of probe (fluorescence increase)” value in data set [2] and in data set [3] was “catalyzed reduction” throughout.

On to `CC(=O)C#Cc1cc2cc3c4c(c2oc1=O)CCCN4CCC3` [compound 7, 9-(3-Oxo-but-1-ynyl)-2,3,5,6-tetrahydro-1H,4H-11-oxa-3a-aza-benzo[de]anthracen-10-one], for which the “reduction of probe (fluorescence increase)” value in data set [2] and in data set [3] was “catalyzed reduction” throughout.

B1: AKR1C1 (Homo sapiens) (protein)
chain: MDSKYQCVKLNDGHFMPVLGFGTYAPAEVPKSKALEATKLAIEAGFRHIDSAHLYNNEEQVGLAIRSKIADGSVKREDIFYTSKLWCNSHRPELVRPALERSLKNLQLDYVDLYLIHFPVSVKPGEEVIPKDENGKILFDTVDLCATWEAVEKCKDAGLAKSIGVSNFNRRQLEMILNKPGLKYKPVCNQVECHPYFNQRKLLDFCKSKDIVLVAYSALGSHREEPWVDPNSPVLLEDPVLCALAKKHKRTPALIALRYQLQRGVVVLAKSYNEQRIRQNVQVFEFQLTSEEMKAIDGLNRNVRYLTLDIFAGPPNYPFSDEY
notes: gift of the Penning lab (University of Pennsylvania School of Medicine)
Regarding B1, the Km is 21.0 ± 1.3 7.2 ± 0.6 4.3 ± 0.3 14.8 ± 0.9 μM in data set [4]; 5.5 ± 0.7 3.0 ± 0.2 0.051 ± 0.005 6.2 ± 0.7 μM in data set [5]; 4.0 ± 0.6 4.5 ± 0.6 0.13 μM in data set [6]; 24.4 ± 2.3 7.3 ± 0.4 1.1 ± 0.1 20.6 ± 1.9 μM in data set [7]; 35.3 ± 2.9 4.8 ± 0.3 8.3 ± 0.9 40.2 ± 3.4 μM in data set [8]. Further, the kcat (usually the number of substrate molecules converted per active site and unit of time at saturation) in data set [4] is 0.0333 s⁻¹; in data set [5], 0.025 s⁻¹; in data set [6] it was 1.6 0.40 7.2 no activity; in data set [7] it was 0.0183 s⁻¹; in data set [8] it was 0.11 s⁻¹. For the same molecule, the kcat/Km in data set [4] is listed as 0.10 3.0 2.1 0.14 min^−1 μM^−1; in data set [5] it was 0.27 7.8 106 0.10 min^−1 μM^−1; in data set [6], 0.39 0.08 56 min^−1 μM^−1; in data set [7] it was 0.046 2.1 6.9 0.020 min^−1 μM^−1; in data set [8] it was 0.19 6.0 0.84 0.036 min^−1 μM^−1.
